Here are results for four molecules from patent US20140363438A1, “NEUREGULIN ANTIBODIES AND USES THEREOF” (Genentech, Inc., priority 2011, published 2014).

Positions count from the first letter of the chain named.

One may read the Kd as the free concentration of one partner at which half of the binding sites on the other are occupied at equilibrium, for simple one-to-one binding. Usually koff stands for the rate constant with which the complex falls apart. As a reminder, the kon is a measure of how fast the partners come together.

One assay deals with EGF (UniProt P01133 971-1023). Nature of the assay: ELISA. A general note: An ELISA detects its analyte on a solid surface through an enzyme-linked reagent.
Chain of EGF (P01133 971-1023 limits assumed): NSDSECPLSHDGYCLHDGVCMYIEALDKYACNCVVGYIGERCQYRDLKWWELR
The target of a further assay is HB-EGF (UniProt Q99075 63-148, limits assumed). In words: ELISA.
Chain of HB-EGF (Q99075 63-148 limits assumed): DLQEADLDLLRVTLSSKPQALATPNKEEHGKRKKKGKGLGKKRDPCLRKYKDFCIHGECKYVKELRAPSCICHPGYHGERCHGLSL
Another assay addresses T1, Betacellulin (BTC) (UniProt P35070 32-111).
T1 sequence (looked up): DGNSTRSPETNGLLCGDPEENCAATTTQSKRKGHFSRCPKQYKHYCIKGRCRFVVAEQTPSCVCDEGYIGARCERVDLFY
Nature of the assay: ELISA.

Assay [1] concerns the target T2, Recombinant human Neuregulin 1-beta (rhNRG1b, Genentech) (human, UniProt Q02297 1-640).
T2 sequence: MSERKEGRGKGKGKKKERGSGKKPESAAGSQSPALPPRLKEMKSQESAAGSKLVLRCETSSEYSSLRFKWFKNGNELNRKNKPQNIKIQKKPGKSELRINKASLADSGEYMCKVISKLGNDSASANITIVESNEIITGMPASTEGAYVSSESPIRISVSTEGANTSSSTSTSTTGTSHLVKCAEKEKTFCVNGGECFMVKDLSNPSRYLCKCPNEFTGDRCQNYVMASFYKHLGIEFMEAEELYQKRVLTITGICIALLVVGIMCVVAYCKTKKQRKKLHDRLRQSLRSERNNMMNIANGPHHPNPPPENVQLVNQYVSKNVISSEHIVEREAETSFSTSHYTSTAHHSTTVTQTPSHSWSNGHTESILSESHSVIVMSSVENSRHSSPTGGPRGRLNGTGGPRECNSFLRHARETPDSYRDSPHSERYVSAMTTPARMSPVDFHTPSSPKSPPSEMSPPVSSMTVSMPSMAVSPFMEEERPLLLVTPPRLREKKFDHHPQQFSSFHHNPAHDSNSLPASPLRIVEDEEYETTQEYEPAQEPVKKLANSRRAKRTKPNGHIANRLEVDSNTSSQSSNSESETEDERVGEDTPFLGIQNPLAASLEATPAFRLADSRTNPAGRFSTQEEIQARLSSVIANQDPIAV
In words: cell-based or functional assay.

Assay [2] concerns the target T3, Recombinant human NRG1-α EGF domain (R&D Systems, cat#296-HR/CF) (human, UniProt Q02297 177-241).
T3 sequence: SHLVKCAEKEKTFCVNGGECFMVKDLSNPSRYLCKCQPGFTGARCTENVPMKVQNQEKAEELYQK
Nature of the assay: cell-based or functional assay.

In assay [3] the target is T3, Recombinant human NRG1-α EGF domain …. In words: competition ELISA on NRG1α; competitor whose signal is read: 526.02.
Assay [4] has the same target. Nature of the assay: competition ELISA on NRG1α; competitor whose signal is read: 526.90.
The target of assay [5] is T4, Recombinant human NRG1-β ECD domain (R&D Systems, cat#377-HB/CF) (human, UniProt Q02297-11 121-191, limits assumed).
T4 construct: also called NRG1-beta; HRG1β
T4 sequence: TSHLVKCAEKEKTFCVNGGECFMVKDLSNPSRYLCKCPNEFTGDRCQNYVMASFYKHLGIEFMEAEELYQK
In words: competition ELISA on NRG1β; competitor whose signal is read: 526.02.

The target of assay [6] is T4, Recombinant human NRG1-β ECD domain …. In words: competition ELISA on NRG1β; competitor whose signal is read: 526.90.
Assay [7] addresses T3, Recombinant human NRG1-α EGF domain …. Nature of the assay: competition ELISA on NRG1α; self-competition, signal read: 538.24.71.
Assay [8] has as its target T4, Recombinant human NRG1-β ECD domain …. Nature of the assay: competition ELISA on NRG1β; self-competition, signal read: 538.24.71.
The target of assay [9] is T3, Recombinant human NRG1-α EGF domain …. Nature of the assay: SPR (BIAcore T100), IgG captured by anti-human Fc, NRG1α injected; table under the head '250 nM NRG1-alpha'. The protocol:
(§1) Binding affinities of anti-NRG1 IgGs were measured by Surface Plasmon Resonance (SRP) using a BIAcore™-T100 instrument. Anti-NRG1 human IgGs were captured by mouse anti-human Fc antibody (GE Healthcare, cat# BR-1008-39) coated on CM5 biosensor chips to achieve approximately 1000 response units (RU). […] Association rates (kₒₙ) and dissociation rates (koff) were calculated using a simple one-to-one Langmuir binding model (BIAcore Evaluation Software version 3.2). The equilibrium dissociation constant (KD) was calculated as the ratio koff/kₒₙ.

Assay [10] concerns the target T4, Recombinant human NRG1-β ECD domain …. In words: SPR (BIAcore T100), IgG captured by anti-human Fc, NRG1β injected; sensorgram shown for 6.25 nM (sheet: '6.25 mnM NRG beta'). The protocol: as §1
Background: Surface plasmon resonance follows binding to a sensor surface in real time, without labels.

The target of assay [11] is T3, Recombinant human NRG1-α EGF domain …. Nature of the assay: SPR (BIAcore T100), IgG captured by anti-human Fc, NRG1α injected; sensorgram shown for 6.25 nM (sheet: '6.25 mnM NRG alpha'). The protocol: as §1
Assay [12] addresses T4, Recombinant human NRG1-β ECD domain …. Nature of the assay: SPR (BIAcore T100), IgG captured by anti-human Fc; table under the head '125nM NRG-beta'; this table is identical to that of FIG. 9 (NRG1-alpha) and does not fit the slow dissociation of the sensorgrams above it.
Assay [13] addresses T3, Recombinant human NRG1-α EGF domain …. In words: SPR (BIAcore T100), IgG captured by anti-human Fc, 250 nM NRG1α injected; sensorgram. The protocol:
as §1

A further assay addresses T5, NRG1β (Homo sapiens, UniProt Q02297).
T5 sequence (Q02297 177-244 isoform Q02297-6 limits assumed): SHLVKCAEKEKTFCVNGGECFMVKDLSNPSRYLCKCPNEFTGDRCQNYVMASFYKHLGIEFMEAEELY
In words: Inhibition of 125I-HRG (NRG1β) binding to HER3-ECD-Fc. Conditions: affinity matured clones of 538.24, FIG. 7. The protocol:
The antibodies were tested for their ability to inhibit NRG1β binding to HER3-Fc. 125I-HRG was generated at Genentech as described previously (Sliwkowski et al JBC 1994). Binding assays were performed in Nunc break-apart strip wells (Thermo-Fisher Scientific, Rochester, N.Y.). Plates were coated at 4° C. overnight with 250 ng/well of HER3-ECD-Fc fusion protein in carbonate buffer (pH 9.6). Plates were rinsed twice with wash buffer (PBS/0.05% Tween 20) and blocked with 100 μL PBS including 1% bovine serum albumin (BSA) for 30 minutes. Increasing concentrations of anti-NRG1 antibodies in RPMI 1640 medium (Invitrogen; Carlsbad, Calif.) with 0.2% BSA were pre-bound to HER3-ECD-Fc. 125I-HRG (specific activity: 266 mCi/mg, 75,000 cpm/well) was added immediately after in a total assay volume of 130 μL. Plates were incubated for 2 hours at room temperature, rinsed twice, and individual wells were counted using a 100 Series Iso Data γ-counter. Samples were assayed in triplicates. Plotting was performed using KaleidaGraph 3.6 software. […]
The affinity matured variants were tested for their ability to block HRGβ binding to HER3-Fc. […] Plates were incubated for 2 hours at room temperature, rinsed twice, and individual wells were counted using a 100 Series Iso Data γ-counter. […]

Assay [14] addresses T3, Recombinant human NRG1-α EGF domain …. Nature of the assay: competition ELISA on NRG1α; signal of 526.90 against rising 538.24.71.

B1: anti-NRG1 antibody 538.24.71 (antibody, human IgG1, kappa, V domains shown)
VH: EVQLVESGGGLVQPGGSLRLSCAASGFTFSGTWIHWVRQAPGKGLEWVAAITPADGSTNYADSVKGRFTISADTSKNTAYLQMNSLRAEDTAVYYCATYMFAMDYWGQGTLVTVSS
VL: DIQMTQSPSSLSASVGDRVTITCRASQDVSISLAWYQQKPGKAPKLLIYGASNLESGVPSRFSGSGSGTDFTLTISSLQPEDFATYYCQQHYTLPFTFGQGTKVEIKR
notes: also called YW538.24.71
On to B1, for which the binding result with EGF, in the assay with HB-EGF and in the assay with Betacellulin (BTC) was “no binding” in each case. Also, the “IC50 of inhibition of Her3 activation (phosphorylation), KIRA on MCF-7 cells, 0.2 nM rhNRG1b” value in assay [1] is 0.12 nM. Besides, the “IC50 of inhibition of Her3 activation (phosphorylation), KIRA on MCF-7 cells, 0.5 nM rhNRG1a” value in assay [2] was found to be 14 nM. The “IC50 (read off the curve)” value in assay [3] was roughly 5 nM; in assay [4] it was roughly 4 nM; in [5], roughly 2 nM; in assay [6], roughly 8 nM; in [7], roughly 3 nM; in assay [8], roughly 7 nM. For the same molecule, the equilibrium dissociation constant (Kd) in assay [9] came out at 2 nM; in assay [10], 0.00192 nM; in assay [11], 1.32 nM; in [12], 2 nM. For the same molecule, the off-rate (koff) came out at 0.03 s⁻¹ in assay [9], 1.48e-06 s⁻¹ in assay [10], 0.00603 s⁻¹ in assay [11] and 0.03 s⁻¹ in assay [12]. Besides, the association rate constant (kon) in [9] is 1.5e+07 M⁻¹ s⁻¹; in assay [10] it was 771000 M⁻¹ s⁻¹; in assay [11], 4.57e+06 M⁻¹ s⁻¹; in assay [12], 1.5e+07 M⁻¹ s⁻¹.

B2: 538.24.38 (antibody, V domains shown)
VH: B1 VH
VL: DIQMTQSPSSLSASVGDRVTITCRASQDVSTAVAWYQQKPGKAPKLLIYSASFLYSGVPSRFSGSGSGTDFTLTISSLQPEDFATYYCQQSYTIPMTFGQGTKVEIK
notes: also called YW538.24.38; copies: 2 + 2
In the case of B2, the binding result in [13] was “binds”.

B3: 538.24.38: affinity matured variant of 538.24; VH SEQ ID NO: 21, VL SEQ ID NO: 25 (antibody, V domains shown)
VH: B1 VH
VL: B1 VL with I31T, S32A, L33V, G50S, N53F, E55Y, H91S, L94I, F96M
modifications: Heavy chain variable region; Light chain variable region
Consider B3, for which the “blocking of 125I-NRG1β binding to Her3” value with NRG1β is “All but 538.24.38 are highly effective in blocking binding”.

B4: anti-NRG1 antibody 526.90 (antibody, human IgG1, V domains shown)
VH: EVQLVESGGGLVQPGGSLRLSCAASGFTFSGNAMSWVRQAPGKGLEWVSWIYPSGGNTYYADSVKGRFTISADTSKNTAYLQMNSLRAEDTAVYYCARSYILSYPSITWAFDYWGQGTLVTVSS
VL: DIQMTQSPSSLSASVGDRVTITCRASQSISSYLAWYQQKPGKAPKLLIYGASSRASGVPSRFSGSGSGTDFTLTISSLQPEDFATYYCQQSYSTPITFGQGTKVEIKR
notes: also called YW526.90
As for B4, in assay [14], the binding result is “binds”.
